Reference: the DeepSol protein solubility set

test: soluble on expression in E. coli; label from the status in PepcDB or PDB records

Q: With “MSLNKPFERRSLLRGAGALTAASLAPWAAGCAADDDDALTFFFAANPDELRPRMRVVNEFQRRYPDIKVRALLSGPGVMQQLATFCAGGKCPDVLMAWELTYAELADRGVLLDLNTLLARDQAFAAELKSDSIGALYETFTFNGGQYAFPEQWSGNFLFYNKQLFDDAGVPPPPGSWERPWSFAEFLDAAQALTKQGRSGRDRQWGFVNAWVSFYAAGLFAMNNGVPWSVPRMNPTHLNFDHDGFLEAVQFYADLTNKHKVAPSAAEQQSMSTADLFSVGKAGIALAGHWRYQTFDRADGLDFDVAPLPIGPRGRAACSDIGVTGLAIAATSRRKDQAWEFVKFATGPVGQALIGESRLFVPVLRSAINSHGFANAHRRVGNLAVLSEGPAYSEGLPVTPAWEKIAALMDRYFGPVLRGSRPATSLTGLSQAVDEVLRNEGHHHHHH” as the sequence, how does the “soluble on expression in E. coli” value read?
A: not soluble

Q: With “MSLNKRKGILAIGAHPDDIELGCGASLARLAQKGIYIATVVMTTGNSGVDGIIDRHEESRNALKILGCHQTIHLNFADTRAHLQLNDMISALENIIKNQIPSDVEIIRVYTMHDADRHQDHLAVYQASMVACRAIPQILGYETPSTWLSFMPQVFESVKEEYFSLKLTALKKHKSQSQRDYMRPERLRAVAQFRGQQVNSDLGEGFVIHKMILEGHHHHHH” as the sequence, how does the “soluble on expression in E. coli” value read?
A: not soluble

Q: For “MSLNKTFTVEKANRFIAENKHLVNTQYKPEEHFSAEIGWINDPNGFVYFRGEYHLFYQFYPYDSVWGPMHWGHAKSKDLVTWEHLPVALAPDQDYDRNGCFSGSAIVKDDRLWLMYTGHIEEKTGVRQVQNMAFSDDGIHFEKISQNPVATGSDLPDELIAADFRDPKLFEKDGRYYSVVAAKHKNNVGCIVLLGSDNLVEWQFESIFLKGVEHQGFMWECPDYFELDGKDCLIMSPMRYQREGDSYHNINSSLLFTGKVDWGEKCFIPESVQEIDHGQDFYAPQTLLDDQNRRILIAWMQTWGRTLPTHDQEHKWACAMTLPRILRLEDGKLRQFPVKKGQYQIQIDKDCHYHLGNDTDYLEFGYDSNVQQVYIDRSHLIQKILGEEEQDTSRRYVDIEAKELEVVLDKNSIEIFVNQGEASLTATYYLTVPAELSRIDEGHHHHHH”, which “soluble on expression in E. coli” value is on record?
A: soluble

Q: Which “soluble on expression in E. coli” value does the source give for “MSLNLATLQSQFAKALHYQALGEDCDIASDEFTADERIQIYRNNFIVSLSEVLSATYPMVEALLGEECFEQIARQHVLSYPLKEGNVVHYGEGFQDTIMQFSQVIAQAPYSPEVARFEWHIDLARQAQYEQSNAAELKPLALLGEVSEEQQPALVLHLKKGCRSFDSNYAVFDLFSAIQTGQFEQLNINQLQQGVISIQANGEALCHALDADVFQLLQCLEQKQSLSEIPEVLLAHLNRIMALDIVDGFTLQSIEGHHHHHH” here?
A: soluble

Q: Which “soluble on expression in E. coli” value does the source give for “MSLNPASMKYEDQEFVIFDVETTGLSSVYDTIIEIGAVKMKNGEVIDRFDKFINPHHPLSETTINLTSITDEMVQAADDEAVVIKQFMDFYGNDPLCGHNVQFDVGFVDAALKRCGYPEISQPVVDTLEVSRLLHPEQSRHTLDSLCRKYNVPLEHHHRANQDAEATGYLMFKLLDAFNDKYQEDDLGKMNDYSNGEGYKRARPTHITVLAQNQKPGLRNLYELVSLAGIKYNFKGLRTPKSELRRLHAGLLYGSACSQGEVFIAMMQKGYEEAKKKAEFYDFLEIQPPSNYSSLIADGLIADEAQLEEILTNIYKLGRELNKPVVATSDAHYIDKHEAIYRDVLLAAQRGNPNRNKQHPDLHFYTTQEMLDEFSFMGEDIAKEVVISNPNKINAMIDEGVQPVQDESFPPKIPHTAERVRKLTYDKAHELYGDPLPDNIQARLDRELDAIIGNGYGVVYLISQMLVAKSVKDGYLVGSRGSVGSSLVATMMGITEINPMPPHYRCPKCKQSEFFENGEYASGFDLPDKKCPDCQVMMVKDGQNIPFETFLGFHGDKVPDIDLNFSGDYQPVAHNFIRVMFGPNHSFKAGTVGTLADKKAIGYVKHYQDEHPEIKMNNAEVDRLAIGVTGVKATTGQHPAGIVVLPDDKDIYELTPLQYPSDDISKEWKTTHFDFHQIHDNLLKFDILGHQDPTMIRMLQDLSGIDPLTIPTDDPKVMSLFSSPEALGVTPEQINSKTGTLGLPEFGTPFVRGMLEETKPSTFAELLQISGLSHGTDVWLGNAEELINNGTCKLKNVIGCRDNIMTDLIRWGVKEEVAFSTMETVRKGKGISDENMAVLKENKNIPDWYIPSCLKIKYMFPKAHAAAYILMALRVAWFKVYYPEIYYAAYFSVRADKVDLEAMSRGKNTVVALINRIKEKGTAATKLEKDLQTYMELVNEAIERGINFKMVDINESEATTYKIVDKHTILAPFNAVDGLGDSAAKQIVAARSEAPFLSKEDLQVRGKVSQKIMDFFENNNVLEGMPDQNQLSLFEGHHHHHH” here?
A: soluble

Q: Which “soluble on expression in E. coli” value does the source give for “MSLNPKIITQYKNKKVDAASTMTDISGKNILMGFWHNWPSESGQGYQQGMFAEMPLTGIDKAYNVIAVAFMKGAGIPTFKPYNLSDEAFRAQVAELNAQGRAVLISLGGADAHIELHAGQEEALAYEIIRLVEVYGFDGLDIDLEQAAITFADNRTVLPAALRMVREHYETEGKHFIISMAPEFPYLRSAARDTPLLKEITTYFPFLKEAVAFLTSFRSGGAYLAYIEALEDLYDFIAPQYYNQGGDGIWVDELNLWVTQNNDAHKKEFLYYLTDSLIHGTRGFTKIPANRLAIGLPTNNDAAATGYVINPDDVKYALDTLQADGNPIRGLMTWSVNWDNGTPKVGEAYKWEFAKRYGYLTGGEGHHHHHH” here?
A: soluble

Q: With “MSLNPLKCAVIGVGYLGKFHAEKYAALPGCELVAVVDADPVTAAEIGDRLGVRGLTDHRALLGKVDAVSVVVPTSLHHRVARDFLEAGAHVLVEKPITVTVEEADELIRIAKEKQRVLMVGHLERFNAAVLGLDLDHHKPLFIESHRLAPFKPRANDVSVVLDLMIHDIDIILDMVDSEVERIDAKGVAVLTGDIDIANARLQFKSGCVANVTASRVSLKVERKMRMFMPNAYVSVDFQNRVLARHRKGEGEMFPGVPEILSEESVFENGDALMEEIRHFLDCIREHREPLVSGAAGRRALATAIEITNLLKVQESRSEGHHHHHH” as the sequence, how does the “soluble on expression in E. coli” value read?
A: soluble

Q: With “MSLNPPYTIVFALYPGVTQLDFTGPLEFLSKLPHARCVLASSRGEDIRADGGIVFADIARLGAIERCDLLLVPGGLGTIEAMEDAELLAQLRRLAASADYVSSVCTGSLLLGAAGLLKGRRAACHWAWLDSLAAFGAQPCPDRVVVDGKLISGGGVTAGIDMALTLMAEIAGPQFAQTAQLTLEYAEGHHHHHH” as the sequence, how does the “soluble on expression in E. coli” value read?
A: not soluble

Q: With “MSLNRGIGVVTLSTLLASPSALARENPPAEDEPAALEALVVTGEKRERSLKDTASSVSLTSARDIDRKQTGNASVAEVINGSPNVVYTDSVGAPIIRGQDTQGPNNGQNVFWGGTVPRATINLDGHYLNYNEMFFGATSVWDVDSIEVFRGPQTTSQGANAIAGAIIVNTKDPTFSPEAAYQAEIGSYHSRRSSIAVSGPLAQDFAGRLAVDYAGRDTFIDYDNPKFQDSGTDQDFRALNARAKLLWLPSGIPGLESKFTFSHNDNNRPTQEAATRPFDKLDHRSTTMPSWEQDTNTSILDVAYDLDNGIRLFNQAQYSLSSVHRTTGAGGEGDADIRQKNASNESRISFGEQEDRISGMGGVYYARTRTDETLHLRGLSAFDDTKKNLGVFGELNYRLSDRWTLTTGLRYQEDRIERSGNSVLAPRPLDYQKTFSAFLPKVSLAFAATPDWTVGGLVSRGYNPGGVSLNLTTRNWAYFKEETIWNYELFTRASLLDGRLLLNGNLFFMDFKDAQYNIPVVVSPGVAQSYTINAEKAHAYGMELDLDYRLRDDLRLKASAGVLRTRIDEMSGNTGYEHNEFARSPGYTLSFGPSWDVTERLNLNAQVRYLDGYYSDTANTKAYSIKAYTLTDARASYRFNDQVQLYGYVKNVFDDRSPTYMQENRGIGGIEASMTQPRTLGIGIKGTFEGHHHHHH” as the sequence, how does the “soluble on expression in E. coli” value read?
A: not soluble

Q: Which “soluble on expression in E. coli” value does the source give for “MSLNRNNPLEVLGHVSWLWASSPLHRNWPVSLFAINVLPAIRANQYALLTRDNYPVAYCSWANLSLENEIKYLNDVTSLVAEDWTSGDRKWFIVWIAPFGDNGALYKYMRKKFPDELFRAIRVDPKTHVGKVSEFHGGKIDKQLANKIFKQYHHELITEVKNKSDFNFSLTGEGHHHHHH” here?
A: soluble

Q: For “MSLNRQSKAAVPALREISPVKQQVSEEKKEIQEDSSILVDLKGAVQKEGVYKLTASSRVRDVIELAGGLTSEADKHAINFAEKLTDEQVVYVPKQGEEISVLPRSLVSGKKETASKDQSKVHINKASLEELQHIPGIGAKRAQDIIDMRDKLGGFKALEDLRQVSGIGEKTLEKLKDDIFLDEGHHHHHH”, which “soluble on expression in E. coli” value is on record?
A: soluble

Q: For “MSLNSMELLIIKERRIDYDGSAIRSHWAYRNFGILGDSLVVFRGKCNVKVEEMVDIEDLRLRKEIKGDDMVHYILELFWHPDILLASSLQKLLIARLVELLWNYGIEASRRGDDIYVNGRKLSISIATVSPVSIKIHIGLNVKTVGVPPGVDAIGLEELGIDPTEFMERSAKALVEEIEKVRKDSLKVRWVTEGHHHHHH”, which “soluble on expression in E. coli” value is on record?
A: soluble
